Laboratory results as given in the Human Domainome abundance scans (Beltran et al. 2025).

B1: POU domain, class 4, transcription factor 2, residues 256 to 327; numbered along this chain, Q12837 (parent)
chain: RDLEAFAERFKQRRIKLGVTQADVGSALANLKIPGVGSLSQSTICRFESLTLSHNNMIALKPILQAWLEEAE

Variants of: B1
Assay: abundance fitness (aPCA) (normalised: wild type 0, dead -1); higher = more abundant; growth selection in yeast, the domain comes from the species named
Details: Homo sapiens

Abundance fitness: each site, then its substitutions
T20: G -0.419; D -0.254; E -0.325; N -0.559; V -0.964; H -0.736; Y -1.05; S -0.067; C -0.338; I -0.916; L -0.607; A -0.195; W -0.731; K -0.159; R -0.464; Q -0.555; M -0.344; P -0.473
I15: K 0.015; M 0.113; R -0.298; H -0.451; N -0.521; W -0.461; T 0.026; E -0.226; Q -0.066; A -0.237; C -0.405; S -0.262; F -0.36; G -0.515; P -0.569; Y -0.444; L -0.101
G18: E -0.322; M -0.76; I -0.883; N -0.82; R -0.372; K -0.47; H -0.292; L -0.598; S -0.652; Q -0.446; P -1.14; A -0.593; W -0.778; F -0.892
G35: F -0.084; C -0.512; A -0.323; H -0.528; D -0.36; L -0.329; E -0.435; K -0.389
N30: K 0.054; L -0.244; P -0.146; E -0.456; Q -0.059; Y -0.183; H -0.087; V -0.432; C -0.094; I -0.766; A -0.116; G -0.103; M -0.5; W -0.315; T -0.112; R -0.189; S -0.059
D23: Q 0.047; S -0.068; C -0.678; H -0.127; E -0.057; W -0.495; L -0.252; M -0.189; A -0.172; V -0.403; Y -0.299; N -0.119; K 0.09; P -0.755; R -0.243
K16: S -0.018; E 0.036; I -0.016; M 0.11; F -0.066; W -0.403; Y -0.073; N -0.55; A 0.001; G -0.026; H 0.028; T -0.015; Q 0.004; V -0.146; C -0.137; P -1.1; D -0.392
A27: V -0.265; M -0.234; W -0.174; F -0.114; H -0.172; R -0.178; S -0.114; P -0.941; T -0.434; D -0.123; G -0.39; L -0.302; E -0.029; C -0.215; Q 0.068; N -0.323
I33: E -0.205; A -0.295; Y -0.126; S -0.274; T -0.311; C -0.395; K -0.421; P -0.357; Q -0.426; N -0.434; W -0.414; V 0.008; F -0.211; D -0.225; L -0.081; M -0.162; H -0.438; G -0.116
A29: I -0.323; C -0.136; Q 0.108; S 0.019; G -0.009; V -0.237; K 0.042; M -0.046; D 0.03; N -0.116; F -0.544; E -0.239; W -0.799; H -0.198; L -0.158; T -0.107; Y -0.165
G25: A -0.006; D -0.501; M -0.242; K -0.264; N -0.593; I -0.145; C 0.131; Q -0.207; W -0.116; R -0.283; Y -0.404; T 0.117; L -0.031; E 0.127; S 0.166; P -0.487; F -0.494
V24: P -0.928; E -0.88; Y -0.975; N -0.821; F -0.642; M -0.191; C -0.1; T -0.948; I -0.145; R -0.76; G -1.03; K -0.844; W -0.781; A -0.067; Q -1.02; S -0.8
Q21: C -0.024; I 0.151; L 0.002; E -0.258; A -0.028; P -0.175; Y -0.194; G -0.241; F -0.426; W -0.238; T 0.011; H 0.184; R -0.111; M -0.39; K -0.361; N -0.346; V 0.002
L28: V -0.143; P -0.935; E -0.657; S -0.636; T -0.528; F -0.215; H -0.786; A -0.654; I 0.072; Y -0.747; D -0.596; W -0.597; R -0.643; M 0.008
V19: M 0.055; R 0.03; D -0.614; T -0.307; L 0.004; P -0.987; Q -0.027; N -0.093; K 0.258; H -0.12; S -0.092; G -0.927; F -0.103; A 0.018; I -0.189
L17: Y -0.778; V -0.592; H -1.06; T -0.272; N -0.458; K -0.286; D -0.681; G -0.884; R -0.733; C -0.704; W -0.589; P -0.974; S -0.565; Q -0.513; A -0.394
S26: T -0.08; E 0.048; K -0.176; A 0.176; F -0.032; H -0.059; N 0.239; L 0.061; W 0.008; Y -0.05; I -0.275; D -0.076; P -0.694; Q -0.07; G -0.164; R 0.062; M -0.057; V -0.234
K32: L -0.279; E 0.052; C -0.192; S -0.072; P -0.33; Y 0.061; F -0.372; W -0.188; D 0.054; M -0.215; Q -0.012; R -0.084; H -0.178; G -0.24; T -0.112; N 0.189; I -0.181; V -0.021
A22: T -0.347; W -0.302; L -0.222; G -0.038; R -0.138; F -0.031; H -0.03; N -0.219; E -0.066; Q -0.052; P -0.463; S -0.082; V -0.339; D -0.262; K -0.078; I -0.393
P34: H -0.073; C -0.679; I -0.402; M -0.175; D -0.221; E -0.036; W -0.528; T -0.275; A -0.244; Y -0.515; G -0.1; K -0.008; S -0.106; Q -0.263; R -0.231
L31: A -0.426; F -0.018; K 0.002; H -0.379; W 0.038; M 0.032; D -0.509; I 0.057; Y 0.041; C -0.102; T -0.149; G -0.572; P -0.382; R -0.081; Q 0.058; E -0.112
